# Data taken from patent US20200079844A1 (Ablynx, published 2020).
# Like-named read-outs stand apart in the source and are kept apart here.
# Assays:
# [1] = molecular target: T1, human TNFα (human, UniProt P01375 77-233); assay: cell-based or functional assay
# [2] = molecular target: T1, human TNFα; assay: cell-based or functional assay; remark: listed apart in the source
# [3] = molecular target: T1, human TNFα
# [4] = molecular target: T1, human TNFα; remark: listed apart in the source
# [5] = molecular target: T2, rhesus serum albumin (rhesus, UniProt Q28522 17-600)
# T2 construct: On the Biacore chip; also called rhesus albumin
# T2 sequence (Q28522 17-600 limits assumed): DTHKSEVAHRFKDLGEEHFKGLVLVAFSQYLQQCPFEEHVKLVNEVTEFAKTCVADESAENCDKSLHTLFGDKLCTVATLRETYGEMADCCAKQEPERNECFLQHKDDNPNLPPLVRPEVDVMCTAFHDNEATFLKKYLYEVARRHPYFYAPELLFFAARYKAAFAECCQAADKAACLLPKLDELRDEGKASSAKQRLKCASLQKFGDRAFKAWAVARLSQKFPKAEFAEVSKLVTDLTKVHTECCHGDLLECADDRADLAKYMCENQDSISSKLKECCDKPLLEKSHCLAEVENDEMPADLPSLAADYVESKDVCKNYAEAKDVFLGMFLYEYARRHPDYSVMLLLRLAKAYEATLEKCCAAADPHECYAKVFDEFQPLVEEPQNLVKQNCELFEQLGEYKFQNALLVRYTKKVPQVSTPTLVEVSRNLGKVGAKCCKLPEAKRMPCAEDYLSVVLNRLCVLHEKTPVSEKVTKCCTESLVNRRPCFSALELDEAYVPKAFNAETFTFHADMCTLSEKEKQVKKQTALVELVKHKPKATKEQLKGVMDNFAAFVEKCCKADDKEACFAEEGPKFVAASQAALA
# [6] = molecular target: T3, mouse serum albumin (mouse, UniProt P07724 25-608)
# T3 construct: On the Biacore chip; also called mouse albumin
# T3 sequence (P07724 25-608 limits assumed): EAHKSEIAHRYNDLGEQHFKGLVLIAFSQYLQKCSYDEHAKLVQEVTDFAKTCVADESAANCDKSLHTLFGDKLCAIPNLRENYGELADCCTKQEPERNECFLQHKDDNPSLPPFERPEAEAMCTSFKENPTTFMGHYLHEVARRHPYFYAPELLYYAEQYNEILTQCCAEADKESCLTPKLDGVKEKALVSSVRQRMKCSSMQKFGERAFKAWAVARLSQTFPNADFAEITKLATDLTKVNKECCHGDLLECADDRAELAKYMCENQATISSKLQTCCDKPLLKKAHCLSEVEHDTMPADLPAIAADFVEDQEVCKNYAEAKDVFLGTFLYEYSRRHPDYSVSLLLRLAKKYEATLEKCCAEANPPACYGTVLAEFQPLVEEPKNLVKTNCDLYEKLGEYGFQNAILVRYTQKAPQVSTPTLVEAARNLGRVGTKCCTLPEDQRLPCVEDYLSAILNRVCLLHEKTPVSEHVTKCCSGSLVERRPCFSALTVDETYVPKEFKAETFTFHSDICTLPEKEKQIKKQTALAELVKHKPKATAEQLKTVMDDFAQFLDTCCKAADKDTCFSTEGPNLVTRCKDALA
# [7] = molecular target: T4, human serum albumin (human, UniProt P02768 25-609)
# T4 construct: On the Biacore chip; also called human albumin
# T1 sequence (P01375 77-233 limits assumed): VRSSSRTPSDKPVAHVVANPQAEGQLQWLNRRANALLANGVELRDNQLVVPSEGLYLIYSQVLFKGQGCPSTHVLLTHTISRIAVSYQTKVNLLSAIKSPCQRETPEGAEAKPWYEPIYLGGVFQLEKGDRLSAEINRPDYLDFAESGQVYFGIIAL
binder,measurement,setting,value
TNF20 (TNF3 HUM1) (VHH) VHH: EVQLVESGGGLVQPGGSLRLSCAASGRSLSNYYMGWFRQAPGKGRELLGNISWRGYNIYYKDSVKGRFTISRDDSKNTIYLQMNSLKPEDTAVYYCAASILPLSDDPGWNTYWGQGTQVTVSS,"EC50 in nM (mean); L929s + Act D cytotoxicity assay, human TNFa @ 0.5 ng/ml",[1],0.38 nM
same,"EC50 in nM (mean); L929s + Act D cytotoxicity assay, human TNFa @ 0.5 ng/ml",[2],0.38 nM
TNF21 (TNF3 HUM2) (VHH) VHH: EVQLVESGGGLVQPGGSLRLSCAASGFTFSNYYMGWFRQAPGKGRELLGNISWRGYNIYYKDSVKGRFTISRDDSKNTIYLQMNSLKPEDTAVYYCAASILPLSDDPGWNTYWGQGTQVTVSS,"EC50 in nM (mean); L929s + Act D cytotoxicity assay, human TNFa @ 0.5 ng/ml",[1],0.889 nM
same,"EC50 in nM (mean); L929s + Act D cytotoxicity assay, human TNFa @ 0.5 ng/ml",[2],0.889 nM
TNF33 (TNF3 HUM1) (VHH) VHH: EVQLVESGGGLVQPGGSLRLSCAASGRSLSNYYMGWFRQAPGKGRELLGNISWRGYNIYYKDSVKGRFTISRDDSKNTIYLQMNSLRPEDTAVYYCAASILPLSDDPGWNTYWGQGTLVTVSS,"EC50 in nM (mean); L929s + Act D cytotoxicity assay, human TNFa @ 0.5 ng/ml",[2],0.3 nM
TNF22 (TNF3 HUM3) (VHH) VHH: EVQLVESGGGLVQPGGSLRLSCAASGRSLSNYYMGWFRQAPGKGRELLGNISWRGYNIYYKDSVKGRFTISRDDSKNTIYLQMNSLKTEDTAVYYCAASILPLSDDPGWNTYWGQGTQVTVSS,"EC50 in nM (mean); L929s + Act D cytotoxicity assay, human TNFa @ 0.5 ng/ml",[1],0.303 nM
same,"EC50 in nM (mean); L929s + Act D cytotoxicity assay, human TNFa @ 0.5 ng/ml",[2],0.303 nM
TNF23 (TNF3 HUM4) (VHH) VHH: EVQLVESGGGLVQPGGSLRLSCAASGRSLSNYYMGWFRQAPGKGRELLGNISWRGYNIYYKDSVKGRFTISRDDSKNTIYLQMNSLKPEDTAVYYCAASILPLSDDPGWNTYWGQGTLVTVSS,"EC50 in nM (mean); L929s + Act D cytotoxicity assay, human TNFa @ 0.5 ng/ml",[1],0.3 nM
same,"EC50 in nM (mean); L929s + Act D cytotoxicity assay, human TNFa @ 0.5 ng/ml",[2],0.3 nM
"PMP1H2 (VHH, Tested as unpurified protein) VHH: QVKLEESGGGLVQPGDSLRLSCAASGRTFSDYSGYTYTVGWFRQAPGKEREFVARIYWSSGNTYYADSVKGRFTISRDIAKNTVDLLMNNLEPEDTAVYYCAARDGIPTSRSVESYNYWGQGTQVTVSS",koff,[3],0.00365 s⁻¹
"PMP3G2 (VHH, Tested as unpurified protein) VHH: AVQLVESGGGLVQPGDSLRLSCAASGRTFSDYSGYTYTVGWFRQAPGKEREFVARIYWSSGNTYYADSVKGRFTISRDIAKNTVDLLMNNLEPEDTAVYYCAARDGIPTSRSVESYNYWGQGTQVTVSS",koff,[3],0.0109 s⁻¹
"TNF18 (TNF2 HUM4) (VHH, Humanised TNF2, first round) VHH: EVQLVESGGGLVQPGGSLRLSCAASGRTFSEPSGYTYTIGWFRQAPGKGREFVARIYWSSGLTYYADSVKGRFTISRDIAKNTVDLQMNSLRPEDTAVYYCAARDGIPTSRSVGSYNYWGQGTQVTVSS","EC50 in nM (mean); L929s + Act D cytotoxicity assay, human TNFa @ 0.5 ng/ml",[1],1.51 nM
same,"EC50 in nM (mean); L929s + Act D cytotoxicity assay, human TNFa @ 0.5 ng/ml",[2],3.13 nM
same,koff,[4],0.0007 s⁻¹
"TNF19 (TNF2 HUM5) (VHH, Humanised TNF2, first round) VHH: EVQLVESGGGLVQPGGSLRLSCAASGRTFSEPSGYTYTIGWFRQAPGKGREFVARIYWSSGLTYYADSVKGRFTISRDIAKNTVDLQMNSLKPEDTAVYYCAARDGIPTSRSVGSYNYWGQGTLVTVSS","EC50 in nM (mean); L929s + Act D cytotoxicity assay, human TNFa @ 0.5 ng/ml",[1],2.19 nM
same,"EC50 in nM (mean); L929s + Act D cytotoxicity assay, human TNFa @ 0.5 ng/ml",[2],7.37 nM
same,koff,[4],0.00079 s⁻¹
"TNF15 (TNF2 HUM1) (VHH, Humanised TNF2, first round) VHH: EVQLVESGGGLVQPGGSLRLSCAASGRTFSEPSGYTYTIGWFRQAPGKGREFVARIYWSSGLTYYADSVKGRFTISRDIAKNTVDLQMNSLKPEDTAVYYCAARDGIPTSRSVGSYNYWGQGTQVTVSS","EC50 in nM (mean); L929s + Act D cytotoxicity assay, human TNFa @ 0.5 ng/ml",[1],1.67 nM
same,"EC50 in nM (mean); L929s + Act D cytotoxicity assay, human TNFa @ 0.5 ng/ml",[2],5.9 nM
same,koff,[4],0.00054 s⁻¹
"TNF17 (TNF2 HUM3) (VHH, Humanised TNF2, first round) VHH: EVQLVESGGGLVQPGGSLRLSCAASGRTFSEPSGYTYTIGWFRQAPGKGREFVARIYWSSGLTYYADSVKGRFTISRDNAKNTVDLQMNSLKPEDTAVYYCAARDGIPTSRSVGSYNYWGQGTQVTVSS","EC50 in nM (mean); L929s + Act D cytotoxicity assay, human TNFa @ 0.5 ng/ml",[1],3.02 nM
same,"EC50 in nM (mean); L929s + Act D cytotoxicity assay, human TNFa @ 0.5 ng/ml",[2],7.55 nM
same,koff,[4],0.0011 s⁻¹
"TNF16 (TNF2 HUM2) (VHH, Humanised TNF2, first round) VHH: EVQLVESGGGLVQPGGSLRLSCAASGFTFSEPSGYTYTIGWFRQAPGKGREFVARIYWSSGLTYYADSVKGRFTISRDIAKNTVDLQMNSLKPEDTAVYYCAARDGIPTSRSVGSYNYWGQGTQVTVSS","EC50 in nM (mean); L929s + Act D cytotoxicity assay, human TNFa @ 0.5 ng/ml",[1],1.9 nM
same,"EC50 in nM (mean); L929s + Act D cytotoxicity assay, human TNFa @ 0.5 ng/ml",[2],2.42 nM
same,koff,[4],0.00066 s⁻¹
"PMP6 G8 (VHH, serum albumin nanobody, class A) VHH: AVQLVESGGGLVQPGGSLRLTCTASGFTFRSFGMSWVRQAPGKDQEWVSAISADSSTKNYADSVKGRFTISRDNAKKMLYLEMNSLKPEDTAVYYCVIGRGSPSSPGTQVTVSS",binding result,[5],binds
same,binding result,[6],binds
same,binding result,[7],binds
"PMP6 A5 (VHH, serum albumin nanobody, class A) VHH: QVQLAESGGGLVQPGGSLRLTCTASGFTFGSFGMSWVRQAPGEGLEWVSAISADSSDKRYADSVKGRFTISRDNAKKMLYLEMNSLKSEDTAVYYCVIGRGSPASQGTQVTVSS",binding result,[5],binds
same,binding result,[6],binds
same,binding result,[7],binds
"PMP6C1 (VHH, Class B serum albumin nanobody; tested as unpurified protein) VHH: AVQLVDSGGGLVQPGGSLRLSCAASGFSFGSFGMSWVRQYPGKEPEWVSSINGRGDDTRYADSVKGRFSISRDNAKNTLYLQMNSLKPEDTAEYYCTIGRSVSRSRTQGTQVTVSS",binding result,[5],binds
same,binding result,[6],binds
same,binding result,[7],binds
"PMP6B4 (VHH, Class C serum albumin nanobody; tested as unpurified protein) VHH: EVQLVESGGGLVQEGGSLRLACAASERIWDINLLGWYRQGPGNERELVATITVGDSTSYADSVKGRFTISRDYDKNTLYLQMNSLRPEDTGLYYCKIRRTWHSELWGQGTQVTVSS",binding result,[5],binds
same,binding result,[6],binds
same,binding result,[7],binds
"PMP6 G7 (VHH, serum albumin nanobody, class D) VHH: QVQLVESGGGLVQPGGSLRLSCAASGFTFSNYWMYWVRVAPGKGLERISRDISTGGGYSYYADSVKGRFTISRDNAKNTLYLQMNSLKPEDTALYYCAKDREAQVDTLDFDYRGQGTQVTVSS",binding result,[5],binds
same,binding result,[7],binds
"PMP1G11 (VHH, Tested as unpurified protein) VHH: QVQLQESGGGMVQPGGSLRLSCAASGFDFGVSWMYWVRQAPGKGLEWVSEINTNGLITKYPDSVKGRFTISRDNAKTTLYLQMNSLKPEDTALYYCARSPSGSFRGQGTQVTVSS",koff,[3],0.00115 s⁻¹
"PMP1H6 (VHH, Tested as unpurified protein) VHH: EVQLVESGGGLVQPGGSLRLSCATSGFDFSVSWMYWVRQAPGKGLEWVSEINTNGLITKYVDSVKGRFTISRDNAKNTLYLQMDSLIPEDTALYYCARSPSGSFRGQGTQVTVSS",koff,[3],0.00214 s⁻¹
